Experimental data published in publication PMC5916898, “Global profiling of protein–DNA and protein–nucleosome binding affinities using quantitative mass spectrometry”.

What was measured:
Assay in all cases: competition; 150 mM NaCl, 50 mM Tris pH 8, 0.25% NP-40, 1 mM TCEP; 4 C, 2 h; 100 ug HeLa nuclear lysate; free competitor against 200 nM immobilised SP/KLF wild-type
Conditions in all cases: protein: extract
ZNF148 = biological target: T1, ZNF148 (Homo sapiens, UniProt Q9UQR1)
T1 sequence: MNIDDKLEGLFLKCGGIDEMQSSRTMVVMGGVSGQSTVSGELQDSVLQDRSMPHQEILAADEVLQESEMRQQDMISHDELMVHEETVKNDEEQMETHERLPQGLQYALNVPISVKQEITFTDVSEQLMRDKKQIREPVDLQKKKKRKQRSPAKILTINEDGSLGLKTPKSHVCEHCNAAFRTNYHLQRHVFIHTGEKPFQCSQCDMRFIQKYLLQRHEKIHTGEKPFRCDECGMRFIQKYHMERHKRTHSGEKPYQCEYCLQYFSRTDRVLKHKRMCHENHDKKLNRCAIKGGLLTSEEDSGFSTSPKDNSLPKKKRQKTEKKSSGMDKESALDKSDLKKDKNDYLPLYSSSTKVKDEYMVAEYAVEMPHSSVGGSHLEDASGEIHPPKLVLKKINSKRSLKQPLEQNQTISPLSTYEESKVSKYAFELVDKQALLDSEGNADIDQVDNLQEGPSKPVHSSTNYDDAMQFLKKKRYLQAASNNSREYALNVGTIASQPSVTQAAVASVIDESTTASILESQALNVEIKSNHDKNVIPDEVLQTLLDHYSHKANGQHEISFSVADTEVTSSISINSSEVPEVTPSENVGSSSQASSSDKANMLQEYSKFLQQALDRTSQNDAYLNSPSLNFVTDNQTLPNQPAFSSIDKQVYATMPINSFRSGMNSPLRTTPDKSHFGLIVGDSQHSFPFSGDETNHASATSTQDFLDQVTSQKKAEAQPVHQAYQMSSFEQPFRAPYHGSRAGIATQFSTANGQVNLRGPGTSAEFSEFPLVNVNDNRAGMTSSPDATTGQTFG

TFAP2A = TFAP2A (Homo sapiens, UniProt P05549)
Sequence of TFAP2A (P05549 whole entry): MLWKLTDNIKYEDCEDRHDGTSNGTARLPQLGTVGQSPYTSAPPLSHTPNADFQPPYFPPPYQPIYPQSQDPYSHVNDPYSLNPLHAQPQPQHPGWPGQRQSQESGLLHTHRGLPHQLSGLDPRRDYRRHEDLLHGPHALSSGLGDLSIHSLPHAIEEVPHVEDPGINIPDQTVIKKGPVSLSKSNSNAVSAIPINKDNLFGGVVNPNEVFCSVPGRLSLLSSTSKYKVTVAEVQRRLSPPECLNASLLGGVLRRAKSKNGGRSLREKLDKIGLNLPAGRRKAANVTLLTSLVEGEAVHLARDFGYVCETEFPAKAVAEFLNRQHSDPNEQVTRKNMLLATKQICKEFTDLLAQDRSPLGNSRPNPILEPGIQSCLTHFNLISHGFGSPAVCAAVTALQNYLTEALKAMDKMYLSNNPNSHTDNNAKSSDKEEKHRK

KLF13 = KLF13 (Homo sapiens, UniProt Q9Y2Y9)
Sequence of KLF13 (Q9Y2Y9 whole entry): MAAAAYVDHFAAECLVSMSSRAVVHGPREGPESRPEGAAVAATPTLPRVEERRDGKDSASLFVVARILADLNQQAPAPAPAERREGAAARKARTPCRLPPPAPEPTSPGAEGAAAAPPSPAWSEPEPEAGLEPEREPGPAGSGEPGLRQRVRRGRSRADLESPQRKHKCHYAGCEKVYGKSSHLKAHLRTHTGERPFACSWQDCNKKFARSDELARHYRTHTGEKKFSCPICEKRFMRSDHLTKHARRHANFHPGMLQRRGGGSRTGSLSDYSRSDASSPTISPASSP

SP1 = SP1 (Homo sapiens, UniProt P08047)
Sequence of SP1 (P08047 whole entry): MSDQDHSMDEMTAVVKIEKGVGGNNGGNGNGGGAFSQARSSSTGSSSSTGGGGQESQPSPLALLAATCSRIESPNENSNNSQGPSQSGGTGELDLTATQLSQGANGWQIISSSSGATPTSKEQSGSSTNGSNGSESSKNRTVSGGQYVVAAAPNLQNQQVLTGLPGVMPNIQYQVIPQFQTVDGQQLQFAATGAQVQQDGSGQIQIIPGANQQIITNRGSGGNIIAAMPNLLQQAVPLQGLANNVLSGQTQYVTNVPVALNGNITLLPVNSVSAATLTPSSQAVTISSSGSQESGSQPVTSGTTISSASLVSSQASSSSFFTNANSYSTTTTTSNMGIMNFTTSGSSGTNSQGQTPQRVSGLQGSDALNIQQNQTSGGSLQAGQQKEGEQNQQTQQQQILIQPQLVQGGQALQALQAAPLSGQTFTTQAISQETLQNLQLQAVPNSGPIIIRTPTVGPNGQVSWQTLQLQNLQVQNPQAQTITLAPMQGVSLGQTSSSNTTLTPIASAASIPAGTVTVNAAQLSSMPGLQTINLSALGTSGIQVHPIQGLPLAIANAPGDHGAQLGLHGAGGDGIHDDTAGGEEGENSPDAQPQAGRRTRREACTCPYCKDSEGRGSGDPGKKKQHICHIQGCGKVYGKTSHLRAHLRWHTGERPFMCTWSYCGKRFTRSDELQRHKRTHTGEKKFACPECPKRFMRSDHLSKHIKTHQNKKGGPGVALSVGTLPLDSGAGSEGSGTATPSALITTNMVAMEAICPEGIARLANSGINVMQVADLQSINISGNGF

KLF3 = KLF3 (Homo sapiens, UniProt P57682)
Sequence of KLF3 (P57682 whole entry): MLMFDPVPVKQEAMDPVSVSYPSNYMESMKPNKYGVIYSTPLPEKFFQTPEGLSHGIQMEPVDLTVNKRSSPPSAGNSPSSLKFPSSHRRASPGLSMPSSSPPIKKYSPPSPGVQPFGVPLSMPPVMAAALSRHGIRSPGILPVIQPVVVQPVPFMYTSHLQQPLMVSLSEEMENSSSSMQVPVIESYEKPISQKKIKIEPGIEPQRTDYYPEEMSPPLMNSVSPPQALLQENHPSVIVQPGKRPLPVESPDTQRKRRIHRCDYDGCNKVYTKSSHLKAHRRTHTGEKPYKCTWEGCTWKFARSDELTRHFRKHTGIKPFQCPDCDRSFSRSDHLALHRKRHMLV

KLF10 = KLF10 (Homo sapiens, UniProt Q13118)
Sequence of KLF10 (Q13118 whole entry): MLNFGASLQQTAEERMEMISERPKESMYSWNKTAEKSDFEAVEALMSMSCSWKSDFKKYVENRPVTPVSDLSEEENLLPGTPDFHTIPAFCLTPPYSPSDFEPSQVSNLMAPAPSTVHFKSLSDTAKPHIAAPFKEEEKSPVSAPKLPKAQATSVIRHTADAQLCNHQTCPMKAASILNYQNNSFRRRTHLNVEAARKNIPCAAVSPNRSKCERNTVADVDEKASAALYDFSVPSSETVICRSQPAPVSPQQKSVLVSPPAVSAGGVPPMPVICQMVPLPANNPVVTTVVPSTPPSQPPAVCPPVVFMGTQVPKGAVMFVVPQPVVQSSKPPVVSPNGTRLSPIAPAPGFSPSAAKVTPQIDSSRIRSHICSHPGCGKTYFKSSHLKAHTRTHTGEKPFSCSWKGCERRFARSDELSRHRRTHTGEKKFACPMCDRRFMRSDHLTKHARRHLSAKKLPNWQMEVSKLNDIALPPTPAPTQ

ZNF281 = biological target: T2, ZNF281 (Homo sapiens, UniProt Q9Y2X9)
T2 sequence: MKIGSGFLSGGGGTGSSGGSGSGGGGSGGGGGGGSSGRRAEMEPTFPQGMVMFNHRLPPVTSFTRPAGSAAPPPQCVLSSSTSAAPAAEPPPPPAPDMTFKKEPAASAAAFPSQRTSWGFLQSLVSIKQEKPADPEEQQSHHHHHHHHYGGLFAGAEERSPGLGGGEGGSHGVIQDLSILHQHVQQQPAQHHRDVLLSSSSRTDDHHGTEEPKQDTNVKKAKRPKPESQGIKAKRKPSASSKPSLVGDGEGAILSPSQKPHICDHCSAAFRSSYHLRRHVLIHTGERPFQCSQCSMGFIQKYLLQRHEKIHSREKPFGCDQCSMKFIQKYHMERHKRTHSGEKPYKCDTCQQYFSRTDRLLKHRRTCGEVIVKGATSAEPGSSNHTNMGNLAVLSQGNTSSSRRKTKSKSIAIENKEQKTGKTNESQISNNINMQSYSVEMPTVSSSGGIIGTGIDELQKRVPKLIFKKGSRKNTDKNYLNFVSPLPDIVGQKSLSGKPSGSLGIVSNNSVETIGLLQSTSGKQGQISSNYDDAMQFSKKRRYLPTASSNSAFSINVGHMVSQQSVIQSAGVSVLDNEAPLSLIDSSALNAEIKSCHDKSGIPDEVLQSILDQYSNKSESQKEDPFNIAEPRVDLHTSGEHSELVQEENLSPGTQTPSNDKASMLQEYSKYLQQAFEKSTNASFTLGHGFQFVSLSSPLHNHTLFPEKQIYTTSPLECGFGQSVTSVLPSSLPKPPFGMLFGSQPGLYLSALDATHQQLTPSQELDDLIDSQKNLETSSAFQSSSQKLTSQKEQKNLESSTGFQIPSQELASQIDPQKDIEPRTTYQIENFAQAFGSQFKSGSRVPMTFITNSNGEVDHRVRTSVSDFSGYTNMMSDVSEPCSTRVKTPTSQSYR

KLF4 = KLF4 (Homo sapiens, UniProt O43474)
Sequence of KLF4 (O43474 whole entry): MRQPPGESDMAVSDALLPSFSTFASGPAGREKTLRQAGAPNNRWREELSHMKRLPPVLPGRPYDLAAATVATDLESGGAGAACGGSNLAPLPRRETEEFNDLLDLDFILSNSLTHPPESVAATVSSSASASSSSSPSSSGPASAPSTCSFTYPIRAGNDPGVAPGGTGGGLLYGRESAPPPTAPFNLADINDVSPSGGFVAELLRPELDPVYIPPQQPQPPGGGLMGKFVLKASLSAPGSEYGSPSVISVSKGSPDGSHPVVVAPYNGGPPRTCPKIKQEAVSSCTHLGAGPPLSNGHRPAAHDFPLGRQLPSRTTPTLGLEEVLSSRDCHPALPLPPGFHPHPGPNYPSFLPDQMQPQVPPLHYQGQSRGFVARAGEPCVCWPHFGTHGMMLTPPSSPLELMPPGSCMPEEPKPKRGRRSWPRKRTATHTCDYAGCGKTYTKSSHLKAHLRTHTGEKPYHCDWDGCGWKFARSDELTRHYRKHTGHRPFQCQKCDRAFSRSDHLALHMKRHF

B1: SP/KLF wild-type (dsDNA)
DNA 1: GAGAGCCCCGCCCCCTGGCT
DNA 2: AGCCAGGGGGCGGGGCTCTC
IC50 (ZNF148): 0.164 µM | IC50 (TFAP2A): 0.215 µM | IC50 (KLF13): 0.0862 µM | IC50 (SP1): 0.192 µM | IC50 (KLF3): 0.112 µM | IC50 (KLF10): 0.111 µM | IC50 (ZNF281): 0.176 µM | IC50 (KLF4): 0.229 µM
